This note sets out measurements from patent US20170189545A1.

The target in assay [1] is GLP-1 receptor. Briefly: competition with I-125 exendin-4 (9-39) on RIN-m5F cells expressing GLP-1R, gamma counting.
Assay [2] concerns the target GLP-1 receptor. Briefly: comparison of IC50 values, competition with I-125 exendin-4 (9-39) on RIN-m5F cells.

As for exendin-4 (peptide), the IC50 in the assay with GLP-1 receptor [1] was determined as 0.23 nM.

With C40-PEG5K-Ex4 (linear) (peptide), in the assay with GLP-1 receptor [2], the fold better activity than Comparative example 1a (Lys^12-PEG5K-Ex4) turned out to be 6 fold, the fold better activity than Comparative example 1b (Lys^27-PEG5K-Ex4) was 2 fold and the fold better activity than Comparative example 2 (Nter-PEG5K-Ex4) came out at 120 fold. For the same substance, the IC50 with GLP-1 receptor [1] was found to be 1.04 nM.
